Numbering of substitutions follows the chain as printed. Numbers in names are those of the source.
T1: human glycophorin A on human red blood cells or red blood cell membranes (human, UniProt P02724 20-150)
T1 construct: whole, on cells; also called hRBC; human RBC membranes
T1 sequence (looked up): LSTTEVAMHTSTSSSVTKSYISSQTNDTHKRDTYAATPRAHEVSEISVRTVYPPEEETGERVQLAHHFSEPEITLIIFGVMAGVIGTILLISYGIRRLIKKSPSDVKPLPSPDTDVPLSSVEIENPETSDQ

T2: recombinant human glycophorin A ectodomain protein (human, UniProt P02724 20-91)
T2 construct: 72 amino acids of the extracellular region; also called Hu-rec GPA
T2 sequence: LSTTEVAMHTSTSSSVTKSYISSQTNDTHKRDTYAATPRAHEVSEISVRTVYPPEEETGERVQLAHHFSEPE

T3: native human glycophorin A protein (human, UniProt P02724 20-150)
T3 construct: mature; also called Hu-nat GPA
T3 sequence (looked up): T1 sequence (looked up)

B1: TPP-5675, Hu6C12-24 Fab variant VH: (I48M, L70M, T72R) (Fab, V domains shown)
VH: EVQLVQSGAEVKKPGASVKVSCKASGYTFTTYTIHWVRQAPGQGLEWMGYINPSSDYTRYNPKFKDRVTMTRDKSTSTAYMELRSLRSDDTAVYYCQTGTRDYWGQGTTVTVSS
VL: DIQLTQSPSFLSASVGDRVTITCSAASSVSYIYWFQQKPGKAPKLLIYSTSTLPSGVPSRFSGSGSGTEYTLTISSLQPEDFATYYCHQRNSFPFTFGQGTKLEIKR
notes: Built on the parental Fab TPP-4935
B2: TPP-5356, Hu6C12-24 Fab variant VL: (F35Y, Y70F) (Fab, V domains shown)
VH: B1 VH with M48I, M70L, R72T
VL: B1 VL with F35Y, Y70F
notes: as for B1
B3: TPP-5678, Hu6C12-24 Fab variant VH: (I48M, D66G, L70M, T72R) (Fab, V domains shown)
VH: B1 VH with D66G
VL: B1 VL
notes: as for B1
B4: TPP-5838, Hu6C12-24 Fab variant VL: (S24R, A26S, S49A, P54Q, F95Y); VH: (I48M, D66G, L70M) (Fab, V domains shown)
VH: B1 VH with D66G, R72T
VL: B1 VL with S24R, A26S, S49A, P54Q, F95Y
notes: as for B1
B5: TPP-5677, Hu6C12-24 Fab variant VH: (I48M, D66G, L70M) (Fab, V domains shown)
VH: B1 VH with D66G, R72T
VL: B1 VL
notes: as for B1
B6: TPP-5697, Hu6C12-24 Fab variant VH: (D66G, L70M, T72R) (Fab, V domains shown)
VH: B1 VH with M48I, D66G
VL: B1 VL
notes: as for B1
B7: TPP-5698, Hu6C12-24 Fab variant VL: (S24R, A26S) (Fab, V domains shown)
VH: B1 VH with M48I, M70L, R72T
VL: B1 VL with S24R, A26S
notes: as for B1
B8: TPP-5700, Hu6C12-24 Fab variant VL: (S24R, A26S, F95Y) (Fab, V domains shown)
VH: B1 VH with M48I, M70L, R72T
VL: B1 VL with S24R, A26S, F95Y
notes: as for B1
B9: TPP-5836, Hu6C12-24 Fab variant VL: (S24R, A26S, S49A, P54Q, F95Y); VH: (I48M, L70M, T72R) (Fab, V domains shown)
VH: B1 VH
VL: B1 VL with S24R, A26S, S49A, P54Q, F95Y
notes: as for B1
B10: TPP-5676, Hu6C12-24 Fab variant VH: (I48M, D66G) (Fab, V domains shown)
VH: B1 VH with D66G, M70L, R72T
VL: B1 VL
notes: as for B1
B11: TPP-5337, Hu6C12-24 Fab variant VH: (Q97A, T98R) (Fab, V domains shown)
VH: B1 VH with M48I, M70L, R72T, Q97A, T98R
VL: B1 VL
notes: as for B1
B12: TPP-5704, Hu6C12-24 Fab variant VL: (N91D) (Fab, V domains shown)
VH: B1 VH with M48I, M70L, R72T
VL: B1 VL with N91D
notes: as for B1

target: T1, human glycophorin A on human red blood …; assay: ELISA, Fab on coated human RBC membranes

| Binder | binding in ELISA relative to parental Fab |
| --- | --- |
| B1 | 0.7 relative to parental Fab |
| B2 | 0.7 relative to parental Fab |
| B3 | 0.8 relative to parental Fab |
| B4 | 9.3 relative to parental Fab |
| B5 | 0.8 relative to parental Fab |
| B6 | 1.1 relative to parental Fab |
| B7 | 0.6 relative to parental Fab |
| B8 | 2.5 relative to parental Fab |
| B9 | 4.7 relative to parental Fab |
| B10 | 0.7 relative to parental Fab |
| B11 | 0.3 relative to parental Fab |
| B12 | 0.9 relative to parental Fab |

target: T4, Cynomolgus monkey recombinant glycophorin A ectodomain (Cynomolgus monkey); assay: ELISA, Fab on coated recombinant cyno GPA ectodomain
T4 construct: extracellular domain

| Binder | binding in ELISA relative to parental Fab |
| --- | --- |
| B1 | 1 relative to parental Fab |
| B3 | 1.2 relative to parental Fab |
| B4 | 1.1 relative to parental Fab |
| B5 | 1.2 relative to parental Fab |
| B6 | 1.2 relative to parental Fab |
| B7 | 1 relative to parental Fab |
| B8 | 1.2 relative to parental Fab |
| B9 | 1 relative to parental Fab |
| B10 | 1.1 relative to parental Fab |
| B12 | 1 relative to parental Fab |

target: T2, recombinant human glycophorin A …; assay: ELISA, Fab on coated recombinant human GPA ectodomain

| Binder | binding in ELISA relative to parental Fab |
| --- | --- |
| B1 | 1.1 relative to parental Fab |
| B2 | 0.6 relative to parental Fab |
| B3 | 1.1 relative to parental Fab |
| B4 | 4.7 relative to parental Fab |
| B5 | 1.8 relative to parental Fab |
| B6 | 1.3 relative to parental Fab |
| B7 | 1.7 relative to parental Fab |
| B8 | 2.4 relative to parental Fab |
| B9 | 4.1 relative to parental Fab |
| B10 | 1.5 relative to parental Fab |
| B11 | 0.1 relative to parental Fab |
| B12 | 1.1 relative to parental Fab |

target: T3, native human glycophorin A protein; assay: ELISA, Fab on coated native human GPA

| Binder | binding in ELISA relative to parental Fab |
| --- | --- |
| B1 | 0.8 relative to parental Fab |
| B2 | 0.7 relative to parental Fab |
| B3 | 1.2 relative to parental Fab |
| B4 | 5.6 relative to parental Fab |
| B5 | 1.8 relative to parental Fab |
| B6 | 1.2 relative to parental Fab |
| B7 | 1.6 relative to parental Fab |
| B8 | 2.5 relative to parental Fab |
| B9 | 5.1 relative to parental Fab |
| B10 | 1.3 relative to parental Fab |
| B11 | 0.1 relative to parental Fab |
| B12 | 1 relative to parental Fab |

target: T1, human glycophorin A on human red blood …; assay: SPR (Biacore), Fab over human RBC membranes, 1:1 fit;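 further: human RBC membrane preparations captured on an L1 sensor surface, with antibody passed over them as analyte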
Experimental: Kinetic analysis of the antibody binding to human red blood cell membranes was also performed using surface plasmon resonance (SPR) using a Biacore instrument. In this assay membranes prepared from human red blood cells were attached to a L1 sensor matrix and antibodies were flowed over the RBC membranes.

| Binder | Kd | koff | kon |
| --- | --- | --- | --- |
| B1 | 87 nM | 0.036 s⁻¹ | 420000 M⁻¹ s⁻¹ |
| B3 | 37 nM | 0.041 s⁻¹ | 1.1e+06 M⁻¹ s⁻¹ |
| B4 | 3.1 nM | 0.004 s⁻¹ | 1.3e+06 M⁻¹ s⁻¹ |
| B9 | 3.6 nM | 0.0042 s⁻¹ | 1.2e+06 M⁻¹ s⁻¹ |

From patent US20190359687A1 (Bayer, published 2019)
